The target of this assay is T1, LAGE3 (full-length, subunit of the recombinant GON7/LAGE3/OSGEP complex) (human, UniProt Q14657 1-143).
T1 construct: LAGE3, human, KEOPS subunit (homolog of Pcc1); full-length protein used for all structural work; no electron density for the 60 N-terminal residues; source: recombinant, co-expressed with the other KEOPS subunits, purified (size exclusion chromatography, NiIDA); details in Supplementary Methods
T1 sequence (looked up): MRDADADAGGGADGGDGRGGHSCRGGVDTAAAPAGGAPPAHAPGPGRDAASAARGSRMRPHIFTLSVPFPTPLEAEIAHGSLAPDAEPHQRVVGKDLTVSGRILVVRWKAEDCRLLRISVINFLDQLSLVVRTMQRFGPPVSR
Put plainly: SEC-SAXS; SAXS on samples eluting from an online size exclusion HPLC column; 20 mM MES pH 6.5, 200 mM NaCl, 5 mM 2-mercaptoethanol; purified recombinant GON7/LAGE3/OSGEP complex. Conditions: both partners purified. On the technique in general: SEC sorts molecules by how far they enter the pores of the column.

B1: GON7 (full-length, subunit of the recombinant GON7/LAGE3/OSGEP complex) (natural protein, human, UniProt Q9BXV9 1-100, looked up)
chain: MELLGEYVGQEGKPQKLRVSCEAPGDGDPFQGLLSGVAQMKDMVTELFDPLVQGEVQHRVAAAPDEDLDGDDEDDAEDENNIDNRTNFDGPSAKRPKTPS
notes: GON7 (alias C14orf142), human, fifth subunit of the KEOPS complex; full-length protein used for all structural work; only residues 1-20 and 25-50 are seen in the crystal; also called C14orf142; GON7-his; source: recombinant, co-expressed with the other KEOPS subunits, purified (size exclusion chromatography, NiIDA); details in Supplementary Methods
Usually stoichiometry N stands for the number of molecules, sites or subunits per partner or assembly. In the case of B1, the “stoichiometry N” value came to 1.

B2: OSGEP (full-length, subunit of the recombinant GON7/LAGE3/OSGEP complex) (enzyme, human, UniProt Q9NPF4 1-335, looked up)
chain: MPAVLGFEGSANKIGVGVVRDGKVLANPRRTYVTPPGTGFLPGDTARHHRAVILDLLQEALTESGLTSQDIDCIAYTKGPGMGAPLVSVAVVARTVAQLWNKPLVGVNHCIGHIEMGRLITGATSPTVLYVSGGNTQVIAYSEHRYRIFGETIDIAVGNCLDRFARVLKISNDPSPGYNIEQMAKRGKKLVELPYTVKGMDVSFSGILSFIEDVAHRMLATGECTPEDLCFSLQETVFAMLVEITERAMAHCGSQEALIVGGVGCNVRLQEMMATMCQERGARLFATDERFCIDNGAMIAQAGWEMFRAGHRTPLSDSGVTQRYRTDEVEVTWRD
notes: OSGEP, human, catalytic subunit of the KEOPS complex (homolog of Kae1); full-length protein used for all structural work; source: recombinant, co-expressed with the other KEOPS subunits, purified (size exclusion chromatography, NiIDA); details in Supplementary Methods
B2: the “stoichiometry N” value stood at 1.
